Sequences and labels used below:
B1: CPEB3 Ribozyme (parent)
chain: GGGGGCCACAGCAGAAGCGUUCACGUCGCGGCCCCUGUCAGAUUCUGGUGAAUCUGCGAAUUCUGCUGU

This data set covers variants of B1. Description: self-cleavage, relative activity (ratio to wild type); higher = more cleavage; co-transcriptional.
For GGGGGACACAACAGAAGCGUUCACGUCGCGGCCCCUGUCAGAUUCUGGUGAAUCUGCGAAUUCUGCUGU [C6A G11A], the self-cleavage turned out to be 0.536. Under GGGGGACACAUCAGAAGCGUUCACGUCGCGGCCCCUGUCAGAUUCUGGUGAAUCUGCGAAUUCUGCUGU [C6A G11U] stands 0.448; under GGGGGACACAGCAGAAGCGUUCACGUCGCGGCCCCUGUCAGAUUCUGGUGAUUCUGCGAAUUCUGCUGU [C6A A52U], 0.559.

Consider GGGGGACACAGCAGAAGCGUUCACGUCGCGGCCCCUGUCAGAUUCUGGUGAGUCUGCGAAUUCUGCUGU [C6A A52G], for which the self-cleavage was determined as 0.58. Under GGGGGACACAGCAGAAGCGUUCACGUCGCGGCCCCUGUCAGAUUCUGGUGGAUCUGCGAAUUCUGCUGU [C6A A51G] stands 0.604. Regarding GGGGGACACAGCAGAAGCGUUCACGUCGCGGCCCCUGUCAGAUUCUGGUGUAUCUGCGAAUUCUGCUGU [C6A A51U], the self-cleavage came to 0.545. Next, GGGGGACACAGCAGAAGCGUUCACGUCGCGGCCCCUGUCAGAUUCUGGUGCAUCUGCGAAUUCUGCUGU [C6A A51C]: 0.458; GGGGGACACAGCAGAAGCGUUCACGUUGCGGCCCCUGUCAGAUUCUGGUGAAUCUGCGAAUUCUGCUGU [C6A C27U]: 0.159.

On to GGGGGACACAGCAGAAGCGUUCACGUAGCGGCCCCUGUCAGAUUCUGGUGAAUCUGCGAAUUCUGCUGU [C6A C27A], for which the self-cleavage was 0.154.

Take GGGGGACACAGCAGAAGCGUUCACGUGGCGGCCCCUGUCAGAUUCUGGUGAAUCUGCGAAUUCUGCUGU [C6A C27G]: the self-cleavage is 0.122. Under GGGGGACACGGCAGAAGCGUUCACGUCGCGGCCCCUGUCAGAUUCUGGUGAAUCUGCGAAUUCUGCUGU [C6A A10G] stands 0.798.

Take GGGGGACACUGCAGAAGCGUUCACGUCGCGGCCCCUGUCAGAUUCUGGUGAAUCUGCGAAUUCUGCUGU [C6A A10U]: the self-cleavage is 0.903. Take GGGGGACACCGCAGAAGCGUUCACGUCGCGGCCCCUGUCAGAUUCUGGUGAAUCUGCGAAUUCUGCUGU [C6A A10C]: the self-cleavage was determined as 0.67. For the variant GGGGGACACAGCAGAAGCGUUCACGUCGCGGCCCCUGUCAGCUUCUGGUGAAUCUGCGAAUUCUGCUGU [C6A A42C], the self-cleavage was found to be 0.221. Take GGGGGACACAGCAGAAGCGUUCACGUCGCGGCCCCUGUCAGGUUCUGGUGAAUCUGCGAAUUCUGCUGU [C6A A42G]: the self-cleavage came to 0.609. For the variant GGGGGACACAGCAGAAGCGUUCACGUCGCGGCCCCUGUCAGAUUCUGGUGAAUCUGUGAAUUCUGCUGU [C6A C57U], the self-cleavage is 0.168. With GGGGGACACAGCAGAAGCGUUCACGUCGCGGCCCCUGUCAGAUUCUGGUGAAUCUGGGAAUUCUGCUGU [C6A C57G], the self-cleavage came to 0.22. With GGGGGACACAGCAGAAGCGUUCACGUCGCGGCCCCUGUCAGAUUCUGGUGAAUCUGAGAAUUCUGCUGU [C6A C57A], the self-cleavage was 0.182.

Turning to GGGGUCCACAGCAGAAGCGUUCACGUCGCGGCCCCUGUCAGAUUCUGGUGAAUCUGCGAAAUCUGCUGU [G5U U61A], the self-cleavage came out at 0.108. Under GGGGUCCACAGCAGAAGCGUUCACGUCGCGGCCCCUGUCAGAUUCUGGUGAAUCUGCGAACUCUGCUGU [G5U U61C] stands 0.0722; under GGGGGACACAGCAGCAGCGUUCACGUCGCGGCCCCUGUCAGAUUCUGGUGAAUCUGCGAAUUCUGCUGU [C6A A15C], 0.235. As for GGGGGACACAGCAGAAGCGUUCACGUCGCGGGCCCUGUCAGAUUCUGGUGAAUCUGCGAAUUCUGCUGU [C6A C32G], the self-cleavage was 0.147.

GGGGGACACAGCAGAAGCGUUCACGUCGCGGUCCCUGUCAGAUUCUGGUGAAUCUGCGAAUUCUGCUGU [C6A C32U]: the self-cleavage was found to be 0.123. As for GGGGGACACAGCAGAAGCGUUCACGUCGCGGACCCUGUCAGAUUCUGGUGAAUCUGCGAAUUCUGCUGU [C6A C32A], the self-cleavage came out at 0.349. Under GGGGUCCACAGCAGAAGCGUUCACGUCGCGGCCCCUGUCAGAUUCUGGUGAAUCUGCGAAUUCUGCUGG [G5U U69G] stands 0.671. With GGGGGACACAGCAGAAGCGUUCACGUCGCGGCCCCUGUCUGAUUCUGGUGAAUCUGCGAAUUCUGCUGU [C6A A40U], the self-cleavage was found to be 0.346.

With GGGGGACACAGCAGAAGCGUUCACGUCGCGGCCCCUGUCGGAUUCUGGUGAAUCUGCGAAUUCUGCUGU [C6A A40G], the self-cleavage was 0.426.

On to GGGGGACACAGCAGAAGCGUUCACGUCGCGGCCCCUGUCCGAUUCUGGUGAAUCUGCGAAUUCUGCUGU [C6A A40C], for which the self-cleavage was found to be 0.177. Under GGGGGACACAGCAGAAGCGUUAACGUCGCGGCCCCUGUCAGAUUCUGGUGAAUCUGCGAAUUCUGCUGU [C6A C22A] stands 0.165; under GGGGGACACAGCAGAAGCGUUUACGUCGCGGCCCCUGUCAGAUUCUGGUGAAUCUGCGAAUUCUGCUGU [C6A C22U], 0.0847; under GGGGGACACAGCGGAAGCGUUCACGUCGCGGCCCCUGUCAGAUUCUGGUGAAUCUGCGAAUUCUGCUGU [C6A A13G], 0.506. Next, GGGGGACACAGCAGAAGCGUUCACGUCGCGGCCCCUGUCAGAUUCUGGUGAAUCUGCGGAUUCUGCUGU [C6A A59G]: 0.464.

For GGGGGAAACAGCAGAAGCGUUCACGUCGCGGCCCCUGUCAGAUUCUGGUGAAUCUGCGAAUUCUGCUGU [C6A C7A], the self-cleavage is 0.143. For the variant GGGGGACACAGCAGAAGUGUUCACGUCGCGGCCCCUGUCAGAUUCUGGUGAAUCUGCGAAUUCUGCUGU [C6A C18U], the self-cleavage turned out to be 0.146. As to GGGGGACACAGCAGAAGGGUUCACGUCGCGGCCCCUGUCAGAUUCUGGUGAAUCUGCGAAUUCUGCUGU [C6A C18G], the self-cleavage came out at 0.145.

For the variant GGGGGACACAGCAGAAGAGUUCACGUCGCGGCCCCUGUCAGAUUCUGGUGAAUCUGCGAAUUCUGCUGU [C6A C18A], the self-cleavage is 0.167.

As for GGGGGACACAGCAGAAGCGUUCACGUCGCGGCCCCUGUCAGAUUCUGGUGAAUCUGCGAAUUAUGCUGU [C6A C63A], the self-cleavage turned out to be 0.237. Take GGGGGACACAGCAGAAGCGUUCACGUCGCGGCCCCUGUCAGAUUCUGGUGAAUCUGCGAAUUCUGCUGU [C6A]: the self-cleavage is 0.705.

Take GGGGUCCACAGCAGAAGCGUUCACGUCGCGGCCCCUGUCAGAUUCUGGUGAAUCUGCGAAUUCUGCGGU [G5U U67G]: the self-cleavage worked out at 0.615.

Source of the values: the RNAGym collection of RNA variant scans (doi:10.7554/elife.80360).
